US20250346678A1 (published 2025)
Each block holds one binder with its values, some of them ahead of it.

Columns and labels:
[1] = biological target: T1, human PD-L1 IgG1 Fc chimera (human, UniProt Q9NZQ7 19-238); test: ELISA
[2] = biological target: T2, human OX40 IgG1 Fc chimera (human, UniProt P43489 29-214); test: ELISA
T2 chain: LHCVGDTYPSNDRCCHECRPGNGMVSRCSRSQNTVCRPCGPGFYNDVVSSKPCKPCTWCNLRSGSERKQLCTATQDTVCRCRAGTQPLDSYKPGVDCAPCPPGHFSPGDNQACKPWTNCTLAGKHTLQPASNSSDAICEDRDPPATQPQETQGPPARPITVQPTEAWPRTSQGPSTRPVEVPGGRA

[3] = biological target: T1, human PD-L1 IgG1 Fc chimera; test: competition ELISA; PD-1/PD-L1 blocking

T1 sequence (Q9NZQ7 19-238, change not shown): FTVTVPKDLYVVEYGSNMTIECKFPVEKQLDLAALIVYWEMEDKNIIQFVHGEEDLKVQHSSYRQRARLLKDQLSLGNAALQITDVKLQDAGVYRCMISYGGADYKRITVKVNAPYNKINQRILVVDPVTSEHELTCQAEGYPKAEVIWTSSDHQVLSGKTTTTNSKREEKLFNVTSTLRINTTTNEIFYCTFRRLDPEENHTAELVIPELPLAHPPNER

EC50 [1]: 0.0348 nM
B1: anti-PD-L1 antibody clone 32 (antibody, V domains shown)
VH: QVQLVQSGAKVKKPGSSVKVSCKASGGTFSSYAISWVRQAPGQGLEWMGRIIPILGIANYAQKFQGRVTITADKSTSTAYMELSSLRSEDTAVYYCARVVPGYSYGPFDYWGQGTTVTVSS
VL: QSALTQPASVSGSPGQSITISCTGTSNDVGSYNSVSWYQQHPGKAPKLVIYEVANRPSGVPDRFSGSKSGNTASLTISGLQAEDEADYYCSSYTSSSTLVFGGGTKLTVLG

EC50 [2]: 1.22 nM
B2: anti-OX40 antibody clone B19 (antibody, V domains shown)
VH: EVQLVESGGGLVKPGGSLRLSCAASGFTFSSYSMNWVRQAPGKGLEWVSSISSSSRYIYYADSVKGRFTISRDNAKNSLYLQMNSLRAEDTAVYYCARQNEDVAFGIWGQGTMVTVSS
VL: SYVLTQPPSVSVTPGKTARIACGGNNLESKIVSWYQQKPGQAPVLVIFYDTDRPSGISERFSGSNSGNTATLTISRVEAGDEADYYCQVWDSNSDHVIFGGGTKLTVLG

IC50 [3]: 11.4 nM | EC50 [1]: 0.082 nM
B3: anti-PD-L1 antibody clone 6 (antibody, V domains shown)
VH: QVQLVQSGAEVKKPGSSVKVSCKASGGTFRRYSISWVRQAPGQGLEWMGGIIPVFGAAKYAQKFQGRVTITADEFTSTAYMELSSLTSEDTAVYYCALSGDSDAFDIWGQGTMVTVSS
VL: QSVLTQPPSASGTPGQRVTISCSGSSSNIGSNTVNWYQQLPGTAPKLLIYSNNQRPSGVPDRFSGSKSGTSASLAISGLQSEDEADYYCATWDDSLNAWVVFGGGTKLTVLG
